The values below come from FireProtDB (doi:10.1016/j.jmb.2009.05.011).

Values joined by “and” are separate entries in the source; they are usually repeats but may differ in a detail not shown here. Equal values may be shown once.

B1: Dihydrolipoyllysine-residue succinyltransferase component of 2-oxoglutarate dehydrogenase complex, P0AFG6 (parent)
chain: MSSVDILVPDLPESVADATVATWHKKPGDAVVRDEVLVEIETDKVVLEVPASADGILDAVLEDEGTTVTSRQILGRLREGNSAGKETSAKSEEKASTPAQRQQASLEEQNNDALSPAIRRLLAEHNLDASAIKGTGVGGRLTREDVEKHLAKAPAKESAPAAAAPAAQPALAARSEKRVPMTRLRKRVAERLLEAKNSTAMLTTFNEVNMKPIMDLRKQYGEAFEKRHGIRLGFMSFYVKAVVEALKRYPEVNASIDGDDVVYHNYFDVSMAVSTPRGLVTPVLRDVDTLGMADIEKKIKELAVKGRDGKLTVEDLTGGNFTITNGGVFGSLMSTPIINPPQSAILGMHAIKDRPMAVNGQVEILPMMYLALSYDHRLIDGRESVGFLVTIKELLEDPTRLLLDV

The data set covers variants of B1. The settings on record: Escherichia coli (strain K12), pH 7, structure 1W4H, whole UniProt chain shown.
The mark [1] stands for this setting: 10 °C, GdnHCl, CD, 3-[morpholino]propanesulfonic acid 50 mM, NaCl 200 mM.
Where [2] appears, read: 10 °C, GdnHCl, Fluorescence, 3-[morpholino]propanesulfonic acid 50 mM, NaCl 200 mM.
The mark [3] stands for this setting: Thermal, CD, Potassium phosphate 50 mM, KCl 200 mM.

As usually defined, the Tm is the temperature at the midpoint of the melting transition.

For the variant MSSVDILVPDLPESVADATVATWHKKPGDAVVRDEVLVEIETDKVVLEVPASADGILDAVLEDEGTTVTSRQILGRLREGNSAGKETSAKSEEKASTPAQRQQASLEEQNNDALSPAIRRLLAEHNADASAIKGTGVGGRLTREDVEKHLAKAPAKESAPAAAAPAAQPALAARSEKRVPMTRLRKRVAERLLEAKNSTAMLTTFNEVNMKPIMDLRKQYGEAFEKRHGIRLGFMSFYVKAVVEALKRYPEVNASIDGDDVVYHNYFDVSMAVSTPRGLVTPVLRDVDTLGMADIEKKIKELAVKGRDGKLTVEDLTGGNFTITNGGVFGSLMSTPIINPPQSAILGMHAIKDRPMAVNGQVEILPMMYLALSYDHRLIDGRESVGFLVTIKELLEDPTRLLLDV [L127A], under setting [1], the “ddG of mutation (higher = less stable)” value stood at 1.37 kcal/mol, the denaturant m value is 0.63 kcal/mol/M, the “denaturant midpoint (higher = more stable)” value (“denaturant midpoint” for short) amounted to 1.95 M and the unfolding free energy turned out to be 1.23 kcal/mol. For the same variant, under setting [2], the denaturant m value was 0.41 kcal/mol/M and 0.18 kcal/mol/M; the unfolding free energy was found to be 1.2 kcal/mol. Also, under setting [3], the Tm was found to be 29.2 °C, the “ddG of mutation (higher = less stable)” value is 1.9 kcal/mol and the “unfolding enthalpy (van 't Hoff)” value came out at 12 kcal/mol.
As to MSSVDILVPDLPESVADATVATWHKKPGDAVVRDEVLVEIETDKVVLEVPASADGILDAVLEDEGTTVTSRQILGRLREGNSAGKETSAKSEEKASTPAQRQQASLEEQNNDALSPAIRRLLAEHNLDASGIKGTGVGGRLTREDVEKHLAKAPAKESAPAAAAPAAQPALAARSEKRVPMTRLRKRVAERLLEAKNSTAMLTTFNEVNMKPIMDLRKQYGEAFEKRHGIRLGFMSFYVKAVVEALKRYPEVNASIDGDDVVYHNYFDVSMAVSTPRGLVTPVLRDVDTLGMADIEKKIKELAVKGRDGKLTVEDLTGGNFTITNGGVFGSLMSTPIINPPQSAILGMHAIKDRPMAVNGQVEILPMMYLALSYDHRLIDGRESVGFLVTIKELLEDPTRLLLDV [A131G], under setting [1], the “ddG of mutation (higher = less stable)” value was 0.52 kcal/mol, the denaturant m value was 0.71 kcal/mol/M, the “denaturant midpoint” value is 3.12 M and the unfolding free energy was 2.22 kcal/mol. For the same variant, under setting [2], the denaturant m value was 0.43 kcal/mol/M and 0.28 kcal/mol/M; the unfolding free energy turned out to be 2.44 kcal/mol. Besides, under setting [3], the Tm is 48.5 °C, the “ddG of mutation (higher = less stable)” value turned out to be 0.43 kcal/mol and the “unfolding enthalpy (van 't Hoff)” value was 21 kcal/mol.
Consider MSSVDILVPDLPESVADATVATWHKKPGDAVVRDEVLVEIETDKVVLEVPASADGILDAVLEDEGTTVTSRQILGRLREGNSAGKETSAKSEEKASTPAQRQQASLEEQNNDALSPAIRRLLAEHNLDGSAIKGTGVGGRLTREDVEKHLAKAPAKESAPAAAAPAAQPALAARSEKRVPMTRLRKRVAERLLEAKNSTAMLTTFNEVNMKPIMDLRKQYGEAFEKRHGIRLGFMSFYVKAVVEALKRYPEVNASIDGDDVVYHNYFDVSMAVSTPRGLVTPVLRDVDTLGMADIEKKIKELAVKGRDGKLTVEDLTGGNFTITNGGVFGSLMSTPIINPPQSAILGMHAIKDRPMAVNGQVEILPMMYLALSYDHRLIDGRESVGFLVTIKELLEDPTRLLLDV [A129G], for which, under setting [1], the “ddG of mutation (higher = less stable)” value is 0.56 kcal/mol, the denaturant m value was 0.72 kcal/mol/M, the “denaturant midpoint” value amounted to 3.07 M and the unfolding free energy amounted to 2.21 kcal/mol. In addition, under setting [2], the denaturant m value is 0.5 kcal/mol/M and 0.2 kcal/mol/M; the unfolding free energy turned out to be 2.22 kcal/mol. In addition, under setting [3], the Tm was 46.5 °C, the “ddG of mutation (higher = less stable)” value came to 0.58 kcal/mol and the “unfolding enthalpy (van 't Hoff)” value amounted to 22 kcal/mol.
